# B1: TOR1AIP2 (parent)
# chain: YTSSQKVSPIQIDGAGRTWQDSDT
# B2: TRIM63 (parent)
# chain: ANPYWTSRGSSVSMSGGRFRCPTC
# Variants of: B1
# Test: protein stability index of a GFP-peptide fusion (GPS, HEK-293T) (PSI 1-6); higher = more stable
# Settings: c terminus: a fixed tail appended
# 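Further: lentivirally expressed fusions sorted by FACS into six bins by GFP to DsRed ratio, PSI derived from sequencing read proportions per bin multiplied by bin number.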
row,Variant,protein stability index
1,Y1N,4.87
2,Y1S,4.77
3,Y1H,5.19
4,Y1K,4.86
5,Y1W,3.6
6,Y1F,3.02
7,Y1E,5.31
8,Y1C,4.22
9,Y1I,4.3
10,Y1T,4.68
11,Y1M,5.05
12,Y1R,4.8
13,Y1A,3.7
14,Y1Q,4.64
15,Y1L,4.06
16,Y1V,4.26
17,Y1D,4.85
18,Y1P,4.4
19,V7F,3.64
20,V7S,3.52
21,V7D,3.67
22,V7G,3.96
23,V7H,3.58
24,V7K,4.03
25,V7Q,4.19
26,V7M,2.51

row,Variant,protein stability index
1,V7E,3.46
2,V7R,3.43
3,V7A,3.41
4,V7P,3.6
5,V7T,3.78
6,V7C,2.67
7,V7L,3.12
8,V7Y,1.54
9,V7I,2.9
10,V7N,3.97
11,S3N,4.21
12,S3M,3.01
13,S3H,4.38
14,S3Q,3.82
15,S3R,3.39
16,S3G,3.61
17,S3V,3.3
18,S3D,4.32
19,S3K,3.82
20,S3F,2.95
21,S3A,3
22,S3T,3.08
23,S3P,2.57
24,S3C,3.55
25,S3I,3.13
26,S3Y,2.81

row,Variant,protein stability index
1,S3E,3.87
2,S3W,3.04
3,S3L,3.18
4,S4L,2.84
5,S4Y,2.67
6,S4P,3.18
7,S4R,3.23
8,S4T,3.34
9,S4F,2.58
10,S4V,3.27
11,S4M,2.65
12,S4G,3.59
13,S4K,2.36
14,S4E,3.35
15,S4D,4.57
16,S4H,3.37
17,S4I,2.92
18,S4A,3.06
19,S4N,3.65
20,S4Q,3.25
21,S4C,2.78
22,T2D,5.15
23,T2N,4.41
24,T2Q,3.17
25,T2I,2.58
26,T2W,2.83

row,Variant,protein stability index
1,T2M,3.9
2,T2E,4.74
3,T2K,4.83
4,T2H,2.14
5,T2R,4.72
6,T2P,3.93
7,T2F,4.19
8,T2Y,3.54
9,T2S,4.31
10,T2G,3.91
11,T2C,2.46
12,T2A,3.8
13,T2L,3.94
14,K6Y,1.31
15,K6I,3.67
16,K6P,4.01
17,K6F,3.73
18,K6L,2.9
19,K6C,3.04
20,K6D,4.86
21,K6V,3.52
22,K6S,3.51
23,K6R,3.41
24,K6Q,3.76
25,K6A,3.58
26,K6G,3.42

row,Variant,protein stability index
1,K6W,3.33
2,K6T,4.03
3,K6E,4.82
4,K6M,3.6
5,K6N,3.97
6,K6H,3.51
7,Q5N,3.04
8,Q5D,4.04
9,Q5T,3.6
10,Q5S,3.87
11,Q5V,3.31
12,Q5H,2.87
13,Q5C,2.13
14,Q5E,4.2
15,Q5P,2.96
16,Q5A,3.08
17,Q5I,3.12
18,Q5M,3.86
19,Q5Y,2.34
20,Q5K,3.45
21,Q5L,3.58
22,Q5G,3.38
23,Q5R,3.35

# Variants of: B2
# Test: as above
# Settings: c terminus: a fixed tail appended
row,Variant,protein stability index
1,V12K,2.19
2,V12N,2.03
3,V12T,2.9
4,V12D,1.67
5,V12S,2.46
6,V12F,1.64
7,V12Y,1.69
8,V12W,2.87
9,V12A,1.49
10,V12P,2.78
11,V12G,2.1
12,V12M,1.63
13,V12H,1.98
14,V12E,2.16
15,V12I,2.46
16,V12L,1.29
17,V12R,1.32
18,S15A,2.94
19,S15P,2.09
20,S15C,2.02
21,S15W,1.8
22,S15Y,1.57
23,S15N,1.01

row,Variant,protein stability index
1,S15E,2.1
2,S15D,2.3
3,S15I,1.4
4,S15F,2.61
5,S15H,1.87
6,S15Q,2.58
7,S15T,1.43
8,S15L,2.03
9,T23L,2.58
10,T23H,2.28
11,T23W,2.47
12,T23M,2.44
13,T23R,2.43
14,T23F,1.45
15,T23P,2.26
16,T23Q,1.95
17,T23K,3.23
18,T23E,1.69
19,T23S,2.52
20,T23Y,1.75
21,T23D,1.71
22,T23V,1.34
23,T23N,2.03

row,Variant,protein stability index
1,T23A,1.87
2,T23G,3.11
3,P22H,2.39
4,P22M,1.97
5,P22C,1.89
6,P22L,1.24
7,P22K,1.98
8,P22F,2.97
9,P22N,2.5
10,P22V,2.56
11,P22T,2.69
12,P22I,2.75
13,P22S,2.19
14,P22D,2.22
15,P22R,2.12
16,P22Q,2.87
17,R20N,1.57
18,R20H,1.85
19,R20C,2.12
20,R20I,1.91
21,R20Y,1.96
22,R20A,2.38
23,R20F,1.27

row,Variant,protein stability index
1,R20M,2.12
2,R20L,1.51
3,R20Q,1.84
4,R20W,2.43
5,R20G,1.82
6,R20D,2.79
7,R20T,1.78
8,R20E,1.74
9,R20K,2.61
10,R20P,2.4
11,R20V,2.13
12,R20S,2.32
13,R18A,1.89
14,R18N,2.24
15,R18V,1.08
16,R18I,1.37
17,R18G,1.44
18,R18D,2.16
19,R18K,1.44
20,R18E,2.48
21,R18M,2.49
22,R18C,1.4
23,R18P,1.65

row,Variant,protein stability index
1,R18Q,1.32
2,R18F,1.46
3,R18T,2.14
4,M14G,1.83
5,M14N,2.03
6,M14S,2.32
7,M14Q,1.41
8,M14K,1.85
9,M14H,2.21
10,M14V,1.86
11,M14P,2.64
12,M14L,2.21
13,M14F,2.04
14,C24F,2.55
15,C24M,2.07
16,C24S,2.88
17,C24K,2.84
18,C24V,2.3
19,C24Q,2.12
20,C24E,3.19
21,C24N,2.66
22,C24P,3.22
23,C24D,3.73

row,Variant,protein stability index
1,C24G,3.18
2,C24Y,3.28
3,C24R,4.13
4,C24T,2.69
5,C24I,2.05
6,C24H,2.29
7,F19E,3.29
8,F19P,2.25
9,F19H,2.12
10,F19Q,2.19
11,F19T,2.94
12,F19Y,2.04
13,F19A,2.04
14,F19N,2.24
15,F19C,3.67
16,F19S,3.07
17,F19G,3.02
18,F19M,2.79
19,F19R,2.51
20,F19D,2.75
21,F19I,2.34
22,C21W,1.71
23,C21V,1.9

row,Variant,protein stability index
1,C21Y,2.15
2,C21F,1.76
3,C21E,3.46
4,C21K,2.97
5,C21M,3.26
6,C21P,2.72
7,C21N,2.77
8,C21G,2.86
9,C21L,2.32
10,C21I,2.67
11,C21R,2.77
12,C21T,2.23
13,G16N,1.34
14,G16P,2.08
15,G16Y,2.24
16,G16E,1.58
17,G16Q,1.7
18,G16T,1.96
19,G16C,1.91
20,G16M,1.83
21,G16D,2.23
22,G16F,1.32
23,G16W,1.8

row,Variant,protein stability index
1,G16R,1.05
2,G16A,1.72
3,G16V,1.3
4,G16H,2.42
5,G16K,2.1
6,S11T,2.18
7,S11P,2.14
8,S11Y,1.8
9,S11V,2.21
10,S11Q,2.55
11,S11N,2.32
12,S13C,2.02
13,S13L,2.07
14,S13A,1.9
15,S13Y,2.18
16,S13F,1.93
17,S13P,2.21
18,S13R,1.52
19,S13K,2.39
20,S13N,2.18
21,S13V,1.89
22,S13H,1.9
23,S13W,1.79

row,Variant,protein stability index
1,S13I,1.58
2,S13T,1.83
3,S13Q,2.13
4,S13E,2.98
5,S13G,3.37
6,S13D,2.06
7,G17T,1.17
8,G17N,1.75
9,G17H,1.53
10,G17M,2.73
11,G17E,1.7
12,G17F,1.72
13,G17Q,2.07
14,G17A,1.84
15,G17V,2.77
16,G17R,2.65
17,G17D,1.43
18,G17C,1.98
19,G17L,1.81
20,G17W,1.49
21,G17P,1.76
22,G17S,2.26
23,G17I,2.27
